Source: patent US20130303393A1

Biological target: NlpA-80R(scFv)

B1: M18.1 Hum IgG (antibody, V domains shown)
VH: EVQLVESGGGLVQPGGSLRLSCADSGYAFNSSWMNWVRQAPGKGLEWVGRIYPGDGDSNYNGKFEGRAIISADKSSSTAYLQMNSLRAEDTAVYYCARSGLLRYAMDYWGQGTLVTVSS
VL: DIQMTQSPSSLSASVGDRVTVTCRASQGIRNYLNWYQQKPGKAPKFLIYYTSRLLPGVPSRFSGSGSGTDYTLTINSLEQEDIATYYCQQGNTPPWTFGQGTKVEIKR
- M (FL1-Height): 4
